Laboratory results: the DeepSol protein solubility set

assay: soluble on expression in E. coli; label from the status in PepcDB or PDB records

Sequence	soluble on expression in E. coli
MMSTPALRPYLPEDAAVTAAIFVASIEQLTADDYSEEQQEAWASAADDEAKFAARLSGQLTLIATLQGVPVGFASLKGPDHIDMLYVHPDYVGRDVGTTLIDALEKLAGARGALILTVDASDNAAEFFAKRGYVAKQRNTVSINGEWLANTTMTKSLADSAAPGASS	soluble
MMSTSIPDVAVHDSPAIAAPLRWVGMDGIVVPVQLTTADGGQHVIGRARAQIDLPAMGVKGIHMSRLYRLLDTYAVEPLTPVGICGLLSAMVNSHADCASTAARVDWYFDWLRRVPALVSNDLSGWRGYPVWLRAEYSAGHVQFWLCVEVAYSSTCPCSAALARQMLADAFLQEHVEVSALSPETVADWLRSNGSYATPHSQRSLARIEVALTEQAVELGLPALVDCAERILSTPVQAAVRRVDEQAFARLNGANLMYVEDATRRLQHGLAIHYSAFRVHVRHLESLHPNDAVASTADE	not soluble
MMTQGPNLIGIHTNTKENEETQKFVNWFLNTSLTWDNNESKTPAQYFTESASYILPLKETFTGSNNKGQSGKNDGKNSNNTFKAKALELFKEQSENKIVGYSDPSDFRGGKFRESIGSAFNATVNSHVDFNTFVANFRANLGSGYDK	soluble
MMTRESIDKRAGRRGPNLNIVLTCPECKVYPPKIVERFSEGDVVCALCGLVLSDKLVDTRSEWRTFSNDDHNGDDPSRVGEASNPLLDGNNLSTRIGKGETTDMRFTKELNKAQGKNVMDKKDNEVQAAFAKITMLCDAAELPKIVKDCAKEAYKLCHDEKTLKGKSMESIMAASILIGCRRAEVARTFKEIQSLIHVKTKEFGKTLNIMKNILRGKSEDGFLKIDTDNMSGAQNLTYIPRFCSHLGLPMQVTTSAEYTAKKCKEIKEIAGKSPITIAVVSIYLNILLFQIPITAAKVGQTLQVTEGTIKSGYKILYEHRDKLVDPQLIANGVVSLDNLPGVEKK	soluble
MMVPPRPGFAPLSLESINDRMEMHLFLTSACILYHIYIRDNLLIYQEIWTKYWRGRLAESALKNEISALYLRLPFPRPPTLQSIAEQEVICKDAAPIYVYCSREAMLSHVQSKDLCQFGRANLLACTLAPYRTGVTIEMVRCLFKRLRDGNRVEAGTGEEDLSHFVAFLPTTAFRRGPRFYLGGENVQFFLREGGLELPCHIIAFGRALFSEILADGSSWDWKSVGESSRLNHVRASVELSRNVPTAETTDNWAEAALGTDAVYPVRPPNLTPTQDHPCKPLLSGNRVPNERHRPWKRFFKKLRSVSKHFYFNRLEHHHHHH	soluble
MMVRILTRLGQVREAEEKYRRELVDFRMGEVYGNLRAIIADEDVEVRAGEAKPVKIKEVSIPANHIVFMCAYATNPLGHPIAAGEETPLPISMDRKADHATFVAAADGKISRNDLLGVLIILPVELTH	not soluble
MNADKFVETTISDFMRLNSSRDFEYFVSIAKQLYSRGCRDYYTEAFLTHLKTIFPITEENAEKWLKYGEMLGTVGEKDFRTDIFEQMMKDFVDSNKLSQIAAKFHGFVESVDDWNLLAECLFSRVRALEHKINLTASAPMATDPSESSC	not soluble
MNAFDRARQSAIAAAREARGTYRNGLVTPTAGVAPGMTQANLIALPRDWAYDFLLYAQRNPKACPILDVSDAGSPTTLLAEGSDLRTDIPMYRIWRDGKLAEEVSDATQAWAEHDDMVAFLIGCSFTFETPLQEAGIEVRHITDGCNVPMYRTNRACRPAGRLHGEMVVSMRPIPADRVAEASAISGRYPSVHGAPVHIGEPGRLGINDLSRPDFGDAVSIKPGEVPVFWACGVTPQAAVMASGVPFAITHSPGYMFITDVPDSTYHVLEHHHHHH	soluble
MNALVAHNSEAWDKKVETGNEWTVAVEQQVIEQAKKGNWDIRVTPMKDVPKDWFPPIKGLKVLCLASGGGQQGPVLAAAGADVTVLDNSEKQLNQDRMIAERDGLTIHTVKGSMDDLSVFNDESFDVIVHPVANVFVENVLPVWKEAYRVLKRNGILISGFVNPVVFLFDTVLEQQGVLKVKHSIPYADPEDLPKHKVKELIENNEALEFGHSLEDQIKGQIDAGFIVTGFYEDKGGFVLDQYIHTYSATRSVKVLEHHHHHH	soluble
MNANCSSTAAVICEKKLHRPYSKHCPKHWVYNKETQACYRTISKTNMTILEADNKCFDYGFEHRQDAMLTSIESESENQFVMNLAKEKDANFEFIYLGGYGRSRNGNKWHWMDGSEFNYMNWDRGMPFGRRALAVLVMNKRGKWINHYADKILSQYNAVAVCKFKS	not soluble
MNANLNMDVIRSALLAGEVDDAYKVIFNARKKLELYKSTTGDSRYDPYYEFISILDDVVRGRRSWKDLKAYIDGNMDALSKFIDPDFLRSFPYYLFFSIDRYNVRFPYFDGKRCDDR	not soluble
MNARSTRFTQDEVLDLIIVGGGINGAGIAADATGRGLKVGLYDAKDFASATSSASSKLVHGGLRYLEHYEFRLVSEALAEREVLLKKAPHIVTPMRFRLPHRPFLRPAWMIRAGLFLYDNLGKRTSLPASHKVNLKAGSVTKPEMQIGFEYSDCWVDDARLVILNAMQAQEQGAEVLNYCTVEKAERMGDLWHVTLLDEQTQQRFERRSHALVNAAGPWVKQFLNENAHVSSPYGIRLIQGSHIIVPRIHDEPQAYILQNEDKRIVFVIPYLDDYSMIGTTDVEYKGDPRKVAITDAERDYLISIVNKHFMREIARSDIIAEFSGVRPLCDDESNSPQAITRDYTLSLDQQADEAPLLSIFGGKLTTYRKLGEAAMKHLAPFFPKMKAPWTADAPLPGGENFDYAALKNQLVAAFPFITESVIERWLRSYGSRTTQLLAGVTGIEDLGIAFSGELYQREIDYLCEKEFARHAQDIFWRRSKLGLNHDTSVVEEVESYLQQKFHAEQPLKATVLEHHHHHH	soluble
MNASAPIPLNETQRLLRIQELCVLEDTSDEVFDEIVAMTAEFFQTPIALVSIVDEHRQWFRARVGLSARETPRNVSFCAYTILSDTLFEIPDATLDERFMNNSLVTGHPDIRYYAGAPLITDDGLALGSLCVIDTKPREPMSEHQTQMLKRFASLVMKRIVSLRL	not soluble
MNCYNKFAHIYDKLIRADVDYKKWSDFIIEKCVENNLVFDDYLDLACGTGNLTENLCPKFKNTWAVDLSQEMLSEAENKFRSQGLKPRLACQDISNLNINRKFDLITCCLDSTNYIIDSDDLKKYFKAVSNHLKEGGVFIFDINSYYKLSQVLGNNDFNYDDDEVFYYWENQFEDDLVSMYISFFVRDGEFYKRFDEEHEERAYKEEDIEKYLKHGQLNILDKVDCYSNKKVEKFTERITYLVKLGGKSNGR	soluble
MNDAVEVELEPVTYHYFNAGAAGKDLNTNETYIGKMLEEKTGVNFKVEHLVGDINQRTGVMIASGDYPDVIVPDAAIDALLDAGAFIPLNDLLEEHGPNLLEAYGDYLHMFTHDDGNIYYIPFGATVNEFQPNPNIDQGAFWIQRGILKEYGFPEINTLDEYLDIITRYAKENPEIDGMRTIPFTGLTYDWRFFAFTNVPNHLAGYPNDGGVMVDMDTHEASVYADSEYAKRWLKALNELNAEGLLDQEMFVMNYDEYLEKLSSGRVLGFFDYGWQFGTASNALRDAGNPDREYMALPVVFDEGIKDQYIDPPAFTGNRGVGITVNAENPERIIQFWDELIKEDNQRLVMWGIEGEHYNVDENGRFYQTEEQIEIVNNQNFRDEFGMTTFEWSWPRINGTFSDGNAVEARRQPEVAFASYNDDDKEYLEAYGISTFAELFSEPDERPWYPAWSANIEQGSPQQIFEERADEILRRHYARIVLADPADFDKEWDDFVQAYRSLDVDAYENFFTEVVQARVRGEWLEHHHHHH	soluble
MNDFLNFTQQKREEPQQLVLIKYPGIVKNVDKALQTMGGLQLISQSHFNNHSLELSHTPDNPYTSRIMAERKPQDNVSSGTLHLVMKVRRKKIDPTKIKTSFLGLVNTVYTFDVMCDFQYLPLKKRVGCDTFEDLIPKLIPTDIASALSWWDASESVATPLFLPPYQFSRYLTPSTKILGRETDHTEKTKNAQKKGYGQNLRVERKALSVTVNAKEEFPLEPSQEAVDEAMFRCKHDEPHRLLRELFDERPMWTRMGLLYRTRIDDSLLRSILQKYAFYILSGPWGRLWCKFGYDPRTDRNGGLYQTIMVSFRQHGSIPERQRLKVSSDRAQTINHTADVSEPVTYMYEPGKLPRIRQMWYCVMDVRLPQAMNELVAVVENNTPPTPEEVRDKGWLPNTLLEKIRDLIKEDVARTSAELEGLMNDTAPGEEEF	not soluble
MNDHIHRVPALTEEEIDSVAIKTFERYALPSSSSVKRKGKGVTILWFRNDLRVLDNDALYKAWSSSDTILPVYCLDPRLFHTTHFFNFPKTGALRGGFLMECLVDLRKNLMKRGLNLLIRSGKPEEILPSLAKDFGARTVFAHKETCSEEVDVERLVNQGLKRVGNSTKLELIWGSTMYHKDDLPFDVFDLPDVYTQFRKSVEAKCSIRSSTRIPLSLGPTPSVDDWGDVPTLEKLGVEPQEVTRGMRFVGGESAGVGRVFEYFWKKDLLKVYKETRNGMLGPDYSTKFSPWLAFGCISPRFIYEEVQRYEKERVANNSTYWVLFELIWRDYFRFLSIKCGNSLFHLGGPRNVQGKWSQDQKLFESWRDAKTGYPLIDANMKELSTTGFMSNRGRQIVCSFLVRDMGLDWRMGAEWFETCLLDYDPCSNYGNWTYGAGVGNDPREDRYFSIPKQAQNYDPEGEYVAFWLQQLRRLPKEKRHWPGRLMYMDTVVPLKHGNGPMAGGSKSGGGFRGSHSGRRSRHNGP	soluble
MNDTSFENCIKCTVCTTACPVSRVNPGYPGPKQAGPDGERLRLKDGALYDEALKYCINCKRCEVACPSDVKIGDIIQRARAKYDTTRPSLRNFVLSHTDLMGSVSTPFAPIVNTATSLKPVRQLLDAALKIDHRRTLPKYSFGTFRRWYRSIAAQQAQYKDQVAFFHGCFVNYNHPQLGKDLIKVLNAMGTGVQLLSKEKCCGVPLIANGFTDKARKQAITNVESIREAVGVKGIPVIATSSTCTFALRDEYPEVLNVDNKGLRDHIELATRWLWRKLDEGKTLPLKPLPLKVVYHTPCHMEKMGWTLYTLELLRNIPGLELTVLDSQCCGIAGTYGFKKENYPTSQAIGAPLFRQIEESGADLVVTDCETCKWQIEMSTSLRCEHPITLLAQALA	not soluble
MNELVFLHSQYIEEEPYTTDEVIAKYSQIKRESVSKLIKKYQKDLEEFGKVGFEIRAMESGQKAKFYQLNEEQATLLITYLDNTEPVRRFKKALVRQFYDMKNGLYARRMERQKEKSVRKSMTDVIKELGLSPHYYKHYTDLVYKTALGFNAKQLREAREVSKKSTILDFLTSEEIEAVNKREQQVATLLTLKMDYDTIKSILNGQGVLYQTTLKMPVATN	not soluble
MNFIIEPGSLADIDELERLYDELNDHLSATINYPGWIKGIYPVRENAAAGVDDNSLFVARCDGRIAGSVILDHQPEKAYENIVWKIDADYSYIFVVRTFVVHPSFLQMGVGHALMDFSLELALKSEMKSIRLDVYEKNLPAISLYEKCGFEYIDTVDLGLGHYGLDWFKLYEKVI	not soluble
MNGDDTFARRPTVGAQIPEKIQKAFDDIAKYFSKEEWEKMKVSEKIVYVYMKRKYEAMTKLGFKAILPSFMRNKRVTDFQGNDFDNDPNRGNQVQRPQMTFGRLQGIFPKIMPKKPAEEGNVSKEVPEASGPQNDGKQLCPPGKPTTSEKINMISGVLQRYCRFGSRPLQ	soluble
MNGELYLKKGLLQLNKKLYDEALATLNKVIELDDDLASLTSAKCILGEYYFIHQNYEKSKEFLSWICDRQDELEEEFDDLLSEEINTASVLMELIEKYKL	not soluble
